According to publication PMC8080530, “Glucocorticoid receptor Thr524 phosphorylation by MINK1 induces interactions with 14-3-3 protein regulators” (The Journal of Biological Chemistry, 2021):
No end group written: not given here. *: point of attachment. FITC = O=C1OC2(c3ccc(O)cc3Oc3cc(O)ccc32)c2ccc(NC(=S)*)cc21

Experiments:
[1] = biological target: GFP-GR T524A S617A, full-length GR double mutant (human) (UniProt P04150); experiment: co-IP; GFP-Trap agarose beads on RIPA lysates of transfected U2OS or HEK293 cells stimulated with forskolin or calyculin A; blot with anti-pan 14-3-3 antibody
[2] = tested on: GR–14-3-3 interaction in HEK293 and U2OS cells; experiment: Co-IP and far-Western blotting overlay of GR with 14-3-3 after cell stimulation; format: cell-based; details: HEK293 and U2OS cells transfected with WT GR, overnight starvation; forskolin 20 µM for 30 min, calyculin A 50 nM for 10 min
Experimental: The interaction between the full-length GR and 14-3-3 was investigated in a cellular system to validate the relevance of the peptide studies.
The HEK293 and U2OS cell lines (American Type Culture Collection) were cultured in Dulbecco's modified Eagle's medium, supplemented with 10% fetal bovine serum and 1% penicillin-streptomycin (10,000 U/ml) at 37 °C in a 5% CO2 environment. For the Co-IP assay, 3 × 10^6 cells were seeded in a 15-cm cell culture dish. At 60 to 70% confluence, the HEK293 cells were transiently transfected with a mixture of 6-μg GFP-MINK1 or GFP-GR DNA and 24-μl lipofectamine 2000 in 2-ml Opti-MEM for 24 h. […]
(§1) Cells were collected and lysed in radioimmunoprecipitation assay buffer containing 50-mM Tris-HCl, pH 8, 150-mM NaCl, 1-mM EDTA, 0.1% SDS, 1% Na deoxycholate, and 1% NP-40 supplemented with a protease inhibitor cocktail. After lysis, the concentration of protein was quantified by the Bradford test. […]
(§2) Eluted proteins were resolved on a NuPAGE 4 to 12% Bis-Tris Protein Gels, 1.0 mm. […] After washing with TBST, the blots were detected using an Odyssey CLx Imaging system (LI-COR). […]
Samples containing proteins from the Co-IP assay or GR LBD in vitro phosphorylated were loaded on a NuPAGE 4 to 12% Bis-Tris Protein Gels, 1.0 mm, and separated. […] After washing with TBST, the blots were detected using an Odyssey CLx Imaging system (LI-COR). […]

[3] = tested on: MINK1–14-3-3 interaction in HEK293 cells; experiment: Co-IP and far-Western blotting overlay of MINK1 with 14-3-3 after cell stimulation; format: cell-based; details: HEK293 cells transfected with GFP-MINK1; forskolin 20 µM for 30 min, calyculin A 50 nM for 10 min
Experimental: The HEK293 and U2OS cell lines (American Type Culture Collection) were cultured in Dulbecco's modified Eagle's medium, supplemented with 10% fetal bovine serum and 1% penicillin-streptomycin (10,000 U/ml) at 37 °C in a 5% CO2 environment. For the Co-IP assay, 3 × 10^6 cells were seeded in a 15-cm cell culture dish. At 60 to 70% confluence, the HEK293 cells were transiently transfected with a mixture of 6-μg GFP-MINK1 or GFP-GR DNA and 24-μl lipofectamine 2000 in 2-ml Opti-MEM for 24 h. At 60 to 70% confluence, the U2OS cells were transiently transfected with a mixture of 8-μg GFP-MINK1 or GFP-GR and/or FLAG-MINK1 DNA and 32-μl X-tremeGENE 9 DNA in 2 ml Opti-MEM for 24 h. Stimulation with forskolin, H89, IGF-1, and PI303 was preceded by a cell starvation step where the cells were incubated with DMEM without supplements overnight. […]
as §1, §2

[4] = biological target: human 14-3-3ζ, full length, 6His-Linker-h14-3-3 (human) (UniProt P63104); experiment: SPR; Biacore 3000; 6His-tagged 14-3-3 immobilised on an NTA chip (2000 RU 14-3-3ζ, 4000 RU 14-3-3σ); peptides injected in HBS P+ buffer with 1 or 3% DMSO, 20 μl/min; Hill fit; triplicates
[5] = biological target: GR_pT524-pS617 with pT524 replaced by alanine (alanine scan) (human) (UniProt P04150); experiment: fluorescence polarisation; FITC-labelled peptide at 60 nM (monophosphorylated) or 10 nM (doubly phosphorylated) titrated with 14-3-3ζ or 14-3-3σ in dilution series from 300 μM or 150 μM; 30 min at RT; 384-well plate; Hill fit; triplicates
[6] = biological target: GR_pS134, FITC-labelled 13-mer phosphopeptide (human) (UniProt P04150); experiment: as above
[7] = biological target: GR_pT524-pS617 with K518 replaced by alanine (alanine scan) (human) (UniProt P04150); experiment: as above
[8] = biological target: GR_pT524-pS617 with P526 replaced by alanine (alanine scan) (human) (UniProt P04150); experiment: as above
[9] = biological target: GR_pT524-pS617 with R614 replaced by alanine (alanine scan) (human) (UniProt P04150); experiment: as above
[10] = biological target: GR_pS524-pS617, FITC-labelled diphosphoserine analogue of GR_pT524-pS617 (human) (UniProt P04150); experiment: as above
[11] = biological target: GR_pT524-pS617 with pS617 replaced by alanine (alanine scan) (human) (UniProt P04150); experiment: as above
[12] = biological target: GR_pT524-pS617, FITC-labelled 31-mer doubly phosphorylated peptide (human) (UniProt P04150); experiment: as above
[13] = biological target: GR_pS134-pT524, FITC-labelled 31-mer doubly phosphorylated peptide (human) (UniProt P04150); experiment: as above
[14] = biological target: GR_pT524-pT562, FITC-labelled 51-mer doubly phosphorylated peptide with the native sequence as a linker (human) (UniProt P04150); experiment: as above
[15] = biological target: T1, human 14-3-3ζ, full length, 6His-Linker-h14-3-3 (human, UniProt P63104 1-245); experiment: SPR
T1 chain: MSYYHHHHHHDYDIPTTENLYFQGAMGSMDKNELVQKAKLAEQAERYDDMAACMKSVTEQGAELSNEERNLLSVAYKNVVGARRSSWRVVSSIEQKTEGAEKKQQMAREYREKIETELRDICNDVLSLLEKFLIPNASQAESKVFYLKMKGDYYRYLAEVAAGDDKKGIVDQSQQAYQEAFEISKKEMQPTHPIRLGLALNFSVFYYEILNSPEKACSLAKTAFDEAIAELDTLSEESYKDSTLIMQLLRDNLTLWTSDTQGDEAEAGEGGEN

[16] = biological target: T1, human 14-3-3ζ, full length, …; experiment: FP

Chain of GFP-GR T524A S617A, full-length GR double mutant (human) (P04150 whole entry T524A/S617A): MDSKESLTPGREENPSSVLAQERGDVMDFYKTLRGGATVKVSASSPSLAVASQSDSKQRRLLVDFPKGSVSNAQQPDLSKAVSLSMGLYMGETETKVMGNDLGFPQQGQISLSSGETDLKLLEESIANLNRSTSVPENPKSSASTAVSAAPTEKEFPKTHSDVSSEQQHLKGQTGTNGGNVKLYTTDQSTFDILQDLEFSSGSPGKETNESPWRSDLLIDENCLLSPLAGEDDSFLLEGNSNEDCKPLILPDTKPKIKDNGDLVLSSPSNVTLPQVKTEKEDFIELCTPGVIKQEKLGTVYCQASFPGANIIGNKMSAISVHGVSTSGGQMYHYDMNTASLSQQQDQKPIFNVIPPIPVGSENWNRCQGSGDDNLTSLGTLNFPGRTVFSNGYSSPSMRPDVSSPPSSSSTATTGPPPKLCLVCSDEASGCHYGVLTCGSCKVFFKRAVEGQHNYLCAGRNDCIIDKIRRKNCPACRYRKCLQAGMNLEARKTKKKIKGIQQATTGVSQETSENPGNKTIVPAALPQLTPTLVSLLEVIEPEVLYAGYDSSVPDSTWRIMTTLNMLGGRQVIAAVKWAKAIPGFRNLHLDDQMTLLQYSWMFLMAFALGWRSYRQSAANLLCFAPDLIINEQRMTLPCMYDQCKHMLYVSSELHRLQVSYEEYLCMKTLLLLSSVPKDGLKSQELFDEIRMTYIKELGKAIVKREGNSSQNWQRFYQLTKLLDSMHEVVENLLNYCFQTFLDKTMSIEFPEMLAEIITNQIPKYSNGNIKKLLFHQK
Chain of GR_pT524-pT562, FITC-labelled 51-mer doubly phosphorylated peptide with the native sequence as a linker (human) (P04150 518-568): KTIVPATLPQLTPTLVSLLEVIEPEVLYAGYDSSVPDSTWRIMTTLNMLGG

14-3-3 proteins, endogenous (detected with anti-pan 14-3-3 antibody) (from UniProt P63104 1-245) (natural protein)
decrease of the interaction against the WT GR [1]: 35%

COC[C@@H]([C@H](O)[C@H](O)C(=O)NCC[C@H](C)c1nc(/C=C/C[C@@H]2O[C@]3(C[C@@H](O)[C@@H]2C)O[C@H]([C@H](C[C@H](O)[C@H](C)[C@H](O)[C@H](C)/C=C(C)/C(C)=C/C=C/C(C)=C\C#N)OC)[C@H](OP(=O)(O)O)C3(C)C)co1)N(C)C [calyculin A]
GR interaction with 14-3-3 proteins upon stimulation [2]: GR interacted with 14-3-3 proteins | MINK1 interaction with 14-3-3 upon stimulation [3]: MINK1 also interacts with 14-3-3

C=C[C@@]1(C)CC(=O)[C@]2(O)[C@@]3(C)[C@@H](O)CCC(C)(C)[C@@H]3[C@H](O)[C@H](OC(C)=O)[C@@]2(C)O1 [forskolin]
GR interaction with 14-3-3 proteins upon stimulation [2]: GR interacted with 14-3-3 proteins | MINK1 interaction with 14-3-3 upon stimulation [3]: MINK1 also interacts with 14-3-3

GR_pT524-pT562, 51-mer doubly phosphorylated peptide used for SPR (from UniProt P04150 518-568)
Kd [4]: 15000 nM

human 14-3-3ζ, full length, 6His-Linker-h14-3-3 (from UniProt P63104 1-245) (natural protein)
Kd [5]: 120000 nM | Kd [6]: 90000 nM | Kd [7]: 110 nM | Kd [8]: 1200 nM | Kd [9]: 220 nM | Kd [10]: 140 nM | Kd [11]: 1300 nM | Kd [12]: 18 nM | Kd [13]: 550 nM | Kd [14]: 23000 nM

B1: GR_pT524-pS617, 31-mer doubly phosphorylated peptide used for SPR and crystallography (peptide)
peptide: KTIVPATLPQLTPGGGGGRSYRQSSANLLCF
modifications: also: phosphothreonine at T524 and phosphoserine at S617, places in chain not given here
Kd [15]: 30 nM

B2: GR_pS83-pT524, FITC-labelled 31-mer doubly phosphorylated peptide (peptide)
peptide: {FITC}-DLSKAVSLSMGLYGGGGGKTIVPATLPQLTP
modifications: also: phosphoserine at S83 and phosphothreonine at T524, places in chain not given here
Kd [16]: 900 nM
